In patent US20250011363A1, “OPTIMIZED SHORTENED PEPTIDE THAT BINDS TO ACETYLCHOLINE RECEPTOR, AND USE THEREOF” (SKINMED CO., LTD., priority 2021, published 2025) one finds Binding affinity (RU) data, which are given here for 71 molecules.

For assay [1], the target named is acetylcholine receptor. Kind of assay: SPR, AchR on CM5 chip, peptide 10 µM. For orientation: Surface plasmon resonance follows binding to a sensor surface in real time, without labels.
The target of assay [2] is acetylcholine receptor. The experiment in a line: SPR, acetylcholine receptor on CM5 chip, peptide 10 µM.

In turn, RKMTPK [6mer-1-1149] showed a Binding affinity (RU) with acetylcholine receptor [1] of 30 RU.
The same measure, in the same setting: then RKIAFK [6mer-1-1171], with 40 RU.
Consider KVLCKR [6mer-2-537], for which, in the assay with acetylcholine receptor [2], the Binding affinity (RU) turned out to be 153 RU.
Regarding RWQRKK [6mer-2-536], the Binding affinity (RU) with acetylcholine receptor [2] came out at 125 RU.
As to KRHMMK [6mer-1-1167], the Binding affinity (RU) with acetylcholine receptor [1] came to 42 RU.
The molecule KKKEAK [6mer-1-1151] gave a Binding affinity (RU) with acetylcholine receptor [1] of 34 RU.
RKDAIR [6mer-1-1174] gave a Binding affinity (RU) in the assay with acetylcholine receptor [1] of 30 RU.
In turn, KKCHWR [6mer-1-1189] registered a Binding affinity (RU) with acetylcholine receptor [1] of 40 RU.
Molecule KKNNAK [6mer-1-1186] had a Binding affinity (RU) with acetylcholine receptor [1] of 37 RU.
On to RKKEKR [6mer-1-1155], for which the Binding affinity (RU) with acetylcholine receptor [1] is 28 RU.
The molecule KKCMGR [6mer-1-1144] came in with a Binding affinity (RU) with acetylcholine receptor [1] of 25 RU.
RRDWAK [6mer-1-1160] returned a Binding affinity (RU) in the assay with acetylcholine receptor [1] of 29 RU.
The same measure, in the same setting: the value for KKTTGR [6mer-1-1196] was 25 RU.
Consider RKESVR [6mer-1-1157], for which the Binding affinity (RU) with acetylcholine receptor [1] was 36 RU.
Regarding RKYKEK [6mer-1-1152], the Binding affinity (RU) with acetylcholine receptor [1] is 23 RU.
Take KRMSWK [6mer-1-1134]: the Binding affinity (RU) with acetylcholine receptor [1] was found to be 22 RU.
Still for that read-out and setting: the value for KKADHK [6mer-1-1176] was 21 RU.
With RRMDAK [6mer-1-1181], the Binding affinity (RU) with acetylcholine receptor [1] stood at 21 RU.
KRHEFK [6mer-1-1143] came in with a Binding affinity (RU) with acetylcholine receptor [1] of 32 RU.
In the assay with acetylcholine receptor [1], RKAPHR [6mer-1-1147] registered a Binding affinity (RU) of 35 RU.
For the molecule KKEEKR [6mer-1-1166], in the assay with acetylcholine receptor [1], the Binding affinity (RU) turned out to be 22 RU.
Consider KKETPR [6mer-1-1142], for which the Binding affinity (RU) with acetylcholine receptor [1] turned out to be 24 RU.
In the assay with acetylcholine receptor [1], KKCDHR [6mer-1-1162] came in with a Binding affinity (RU) of 41 RU.
Consider KRNMHK [6mer-1-1141], for which the Binding affinity (RU) with acetylcholine receptor [1] was determined as 40 RU.
Consider KGQCRK [6mer-2-541], for which the Binding affinity (RU) in the assay with acetylcholine receptor [2] worked out at 126 RU.
Take KKTHAK [6mer-1-1194]: the Binding affinity (RU) with acetylcholine receptor [1] stood at 22 RU.
Consider RKDDDR [6mer-1-1192], for which, in the assay with acetylcholine receptor [1], the Binding affinity (RU) was determined as 36 RU.
The molecule RKKMAK [6mer-1-1178] yielded a Binding affinity (RU) with acetylcholine receptor [1] of 29 RU.
RKPMMK [6mer-1-1158] had a Binding affinity (RU) in the assay with acetylcholine receptor [1] of 33 RU.
In the assay with acetylcholine receptor [1], RRCSHR [6mer-1-1148] showed a Binding affinity (RU) of 31 RU.
KRMTPR [6mer-1-1179] returned a Binding affinity (RU) in the assay with acetylcholine receptor [1] of 40 RU.
On the same count and under the same terms, the value for RRAWPR [6mer-1-1159] was 39 RU; that for RKYTKK [6mer-1-1191] was 39 RU; that for RKTWEK [6mer-1-1175] was 23 RU.
For the molecule RRDCKK [6mer-1-1145], the Binding affinity (RU) with acetylcholine receptor [1] came to 40 RU.
In the assay with acetylcholine receptor [1], KKHTER [6mer-1-1135] yielded a Binding affinity (RU) of 26 RU.
On to RRHAHK [6mer-1-1187], for which the Binding affinity (RU) with acetylcholine receptor [1] turned out to be 26 RU.
KRKWWR [6mer-1-1150] displayed a Binding affinity (RU) in the assay with acetylcholine receptor [1] of 34 RU.
As for RKHNKK [6mer-1-1153], in the assay with acetylcholine receptor [1], the Binding affinity (RU) was 23 RU.
In the assay with acetylcholine receptor [1], RKIHNK [6mer-1-1183] returned a Binding affinity (RU) of 35 RU.
Molecule KWYTKK [6mer-2-539] showed a Binding affinity (RU) with acetylcholine receptor [2] of 127 RU.
KRLTRR [6mer-2-540]: the Binding affinity (RU) with acetylcholine receptor [2] is 142 RU.
For RRATWR [6mer-1-1165], in the assay with acetylcholine receptor [1], the Binding affinity (RU) worked out at 29 RU.
In turn, KKIEIK [6mer-1-1136] showed a Binding affinity (RU) with acetylcholine receptor [1] of 34 RU.
Same read-out and setting: the value for KKEMMK [6mer-1-1185] was 29 RU.
In the assay with acetylcholine receptor [1], KKMENR [6mer-1-1139] came in with a Binding affinity (RU) of 36 RU.
KRFTDK [6mer-1-1137] returned a Binding affinity (RU) with acetylcholine receptor [1] of 33 RU.
In the assay with acetylcholine receptor [1], KRHWVK [6mer-1-1161] registered a Binding affinity (RU) of 40 RU.
KRATMK [6mer-1-1140] showed a Binding affinity (RU) with acetylcholine receptor [1] of 43 RU.
As for KRYTVR [6mer-1-1156], in the assay with acetylcholine receptor [1], the Binding affinity (RU) was determined as 37 RU.
As to KKPTNK [6mer-1-1193], the Binding affinity (RU) with acetylcholine receptor [1] came out at 33 RU.
Molecule KRPPPK [6mer-1-1180] had a Binding affinity (RU) with acetylcholine receptor [1] of 34 RU.
For KKMMPK [6mer-1-1146], in the assay with acetylcholine receptor [1], the Binding affinity (RU) stood at 34 RU.
For the molecule RKCEKR [6mer-1-1154], the Binding affinity (RU) in the assay with acetylcholine receptor [1] was determined as 41 RU.
KKCMKR [6mer-1-1190] gave a Binding affinity (RU) with acetylcholine receptor [1] of 29 RU.
Consider RKCAFK [6mer-1-1163], for which the Binding affinity (RU) with acetylcholine receptor [1] was determined as 21 RU.
In the assay with acetylcholine receptor [1], RRDTVK [6mer-1-1184] yielded a Binding affinity (RU) of 30 RU.
RRFNFR [6mer-1-1172]: in the assay with acetylcholine receptor [1], the Binding affinity (RU) is 23 RU.
KKEKFR [6mer-1-1168] registered a Binding affinity (RU) with acetylcholine receptor [1] of 40 RU.
KKYNPK [6mer-1-1170]: the Binding affinity (RU) in the assay with acetylcholine receptor [1] was found to be 25 RU.
In turn, KRDEDK [6mer-1-1195] had a Binding affinity (RU) with acetylcholine receptor [1] of 25 RU.
On to KQFCKK [6mer-2-538], for which the Binding affinity (RU) with acetylcholine receptor [2] was 125 RU.
KKHHAK [6mer-1-1164] gave a Binding affinity (RU) with acetylcholine receptor [1] of 41 RU.
Regarding KKTCHR [6mer-1-1182], the Binding affinity (RU) in the assay with acetylcholine receptor [1] was 35 RU.
With RKMDIR [6mer-1-1169], the Binding affinity (RU) with acetylcholine receptor [1] was found to be 32 RU.
KLFCRR [6mer-2-535] returned a Binding affinity (RU) in the assay with acetylcholine receptor [2] of 133 RU.
For KRPMAK [6mer-1-1197], the Binding affinity (RU) with acetylcholine receptor [1] was 21 RU.
RRHTMR [6mer-1-1177] gave a Binding affinity (RU) with acetylcholine receptor [1] of 21 RU.
On to KRDCFR [6mer-1-1138], for which, in the assay with acetylcholine receptor [1], the Binding affinity (RU) was determined as 21 RU.
In the case of RRMNER [6mer-1-1188], in the assay with acetylcholine receptor [1], the Binding affinity (RU) is 41 RU.
As to KKIPMK [6mer-1-1173], in the assay with acetylcholine receptor [1], the Binding affinity (RU) is 26 RU.
